Literature values in article PMC3711752.

Target: EGF receptor (Homo sapiens) (UniProt P00533)

Sequence of EGF (P01133 971-1023): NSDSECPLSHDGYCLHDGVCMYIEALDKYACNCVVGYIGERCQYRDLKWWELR

Kd: 3 nM
Substance: EGF (from UniProt P01133)
